The target in this test is human wild-type Cdk2 GST fusion protein (human, UniProt P24941 1-298). The experiment in a line: pull-down.

The text below walks through data of paper PMC1226315 (Nucleic Acids Research, 2005).

B1: Recombinant human wild-type DNA polymerase λ, His-tagged (enzyme)
chain: MDPRGILKAFPKRQKIHADASSKVLAKIPRREEGEEAEEWLSSLRAHVVRTGIGRARAELFEKQIVQHGGQLCPAQGPGVTHIVVDEGMDYERALRLLRLPQLPPGAQLVKSAWLSLCLQERRLVDVAGFSIFIPSRYLDHPQPSKAEQDASIPPGTHEALLQTALSPPPPPTRPVSPPQKAKEAPNTQAQPISDDEASDGEETQVSAADLEALISGHYPTSLEGDCEPSPAPAVLDKWVCAQPSSQKATNHNLHITEKLEVLAKAYSVQGDKWRALGYAKAINALKSFHKPVTSYQEACSIPGIGKRMAEKIIEILESGHLRKLDHISESVPVLELFSNIWGAGTKTAQMWYQQGFRSLEDIRSQASLTTQQAIGLKHYSDFLERMPREEATEIEQTVQKAAQAFNSGLLCVACGSYRRGKATCGDVDVLITHPDGRSHRGIFSRLLDSLRQEGFLTDDLVSQEENGQQQKYLGVCRLPGPGRRHRRLDIIVVPYSEFACALLYFTGSAHFNRSMRALAKTKGMSLSEHALSTAVVRNTHGCKVGPGRVLPTPTEKDVFRLLGLPYREPAERDW
As to B1, the binding result is on record as “binds”.
